From patent publication US20240392013A1, “IL1RAP ANTIBODIES AND USES THEREOF” (STELEXIS THERAPEUTICS, LLC, priority 2021, published 2024)

Tests used:
[1] = system: IL1-induced downstream signaling (phospho-ERK, NFκB) in AML patient samples; assay: IL1 signaling in AML patient samples, Western blot; assay type: cell-based, human; settings: antibody 20 μg/ml, IL1β 100 ng/ml
Description: (§1) AML patient samples or cancer cells (AML, chronic myelogenous leukemia (CML), pancreatic, head and neck squamous cell carcinoma (HNSCC), bladder, non-small-cell lung carcinoma (NSCLC), colorectal and triple-negative breast cancer (TNBC)) were seeded in 6-well plates (5×10^5 cells/well) and incubated overnight at 37° C./5% CO2 in humified incubator. In experiments conducted in cancer cell lines, cells were washed 2× with PBS and serum-starved for 3 hours. Following, cells were treated with IL1RAP antibodies at concentration of 20 μg/ml and incubated for 1 h at 37° C./5% CO2 in humidified incubator. After 1 h, cells were treated with IL1β (Invivogen, cat: rcyec-hil1b), IL33 (Adipogen, cat: AG-40B-0160-C010) or IL36 cytokines (R@D, cat: 6836IL) at 100 ng/ml and incubated for 15 more minutes. Cells were harvested on ice after 1× wash with cold PBS and were centrifuged for 5 minutes at 5000 rpm at 4° C. Cells were then lysed with NP-40 buffer for 5 minutes on ice and centrifuged for 15 minutes at 15000 rpm at 4° C. Supernatants were collected and protein concentrations were determined by BCA (Thermofisher, Cat #PI23225). […] After 3× washes, ECL was applied (Thermofisher, Cat #32106) and proteins were detected after exposure to autoradioraphic films (Worldwide medical products, Cat #41101001) and protein intensity was quantitated using ImageJ software.

[2] = system: IL36-induced downstream signaling (phospho-ERK, AKT, p38, NFκB) in HPAC, CAL33, 5637 cells; assay: IL36 signaling in solid tumor cancer cells, Western blot; assay type: cell-based; settings: IL36γ, antibody 20 μg/ml
Description: as §1

[3] = system: AML patient-derived samples; assay: Colony formation of AML patient-derived samples, alone or with Azacitidine or Venetoclax; assay type: cell-based, human; settings: 2 weeks
Description: Methods: Clonogenicity of AML patient-derived samples were assayed using STLX2012 alone or in combination with Azacitindine (Aza) or Venetoclax (Ven). AML patient-derived samples were plated in MethoCult media and cultured in the presence of STLX2012 (50 μg/mL) or control IgG1 antibody (50 μg/mL), plus or minus Azacitidine (100 nM) or Venetoclax (100 nM), for 2 weeks. Colony numbers were counted manually using an inverted microscope and normalized to the control IgG1 control.

AML patient samples = assay: Proliferation of AML patient samples, Cell-Titer Glo; assay type: cell-based, human; settings: 1 μM, 7 days
CML cells (K562) = assay: Proliferation of CML cells (K562), Cell-Titer Glo; assay type: cell-based, human; settings: 333 nM, 3 days
Description: AML patient samples or cancer cells (AML and CML) were plated at density of 3×10^3 cells/well in two 96-well plates and incubated overnight at 37° C./5% CO2 in humidified incubator. The next day (Day 1) cells in one of the plates were treated with IL1RAP antibody at 10-150 μg/ml at a total volume of 100 μl. Plates were kept at 37° C./5% CO2 in humified for 3-6 days. Cells treated with vehicle or IgG served as controls and every treatment was conducted in triplicates. The second plate was treated on Day 1 with media and cell proliferation was measured on the same day by CellTiter-Glo (Promega, Cat #G7572). In more details, wells were mixed with equal volume (100 μl) of CellTiter-Glo and agitated for 2 minutes followed by 10 minutes incubation at room temperature in the dark. Luminescence signal was measured in Cytation™ (Biotek) plate reader. After 3-6 days, cell proliferation in the […] plates was measured separately in the same way.

[4] = system: AML patient-derived leukemic cells; assay: Jurkat-Lucia NFAT-CD16 ADCC reporter assay against AML patient-derived leukemic cells; assay type: cell-based, human
Description: Methods: ADCC activity is mediated through binding of NK cell's CD16 receptors to the Fc region of antibodies. A Jurkat-Lucia NFAT-CD16 ADCC Reporter cell assay (Invivogen, Cat #jktl-nfat-cd16; https://www.invivogen.com/jurkat-lucia-nfat-adcc-adcp-cells) was used to analyze IL1RAP mAb STLX2012 for ADCC activity. Briefly, the Jurkat cell line was engineered to express the cell surface Fc receptor CD16A (FcγRIIIA) and the Lucia luciferase reporter gene. ADCC is triggered by CD16A cross-linking upon antigen-bound antibody binding at the surface of immune effector cells. Cells are maintained in the presence of zeocin (100 μg/ml) and blasticidin (10 μg/ml).

[5] = system: patient-derived AML samples; assay: Cell viability of patient-derived AML samples, CellTiter-Glo; assay type: cell-based, human; settings: 15 patient-derived AML samples; 0.1-100 nM, 6 days
Description: Primary patient-derived AML cells collected using leukapheresis or peripheral blood draw were selected based on expression levels of IL1RAP, IL1R1 and IL1RL1. On study day 0, cell viability was calculated, and cells were seeded at a density of 20,000 viable cells/well in 96-well plates. Cells were treated on Day 0 with IL1RAP monoclonal antibodies at a concentration of 100 nM followed by 5-fold serial dilutions. Cytarabine treatment (5 μM) was used as a positive control. Plates were kept at 37° C./5% CO2 in humified incubator and media was not changed during the duration of the assay. On Day 6, plates were removed from incubator and equilibrated to room temperature for up to 30 minutes. Then CellTiter-Glo was added to wells (100 μl) and plates were mixed for 2 minutes on plate rocker, followed by 10 minutes incubation at room temperature. Luminescent signal was recorded using Tecan plate reader and IC50s were calculated.

B1: 74804_12A21B: anti-IL1RAP mAb; VH SEQ ID NO:6, VL SEQ ID NO:23, κ light chain (antibody, V domains shown)
VH: QVQLLQSGAEVKKPGSSVKVSCKASGGTFSIYAIDWVRQAPGQGLEWMGGIIPIFGTANSAQKFQGRVTITADKSTSTAYMELSSLRSEDTAVYYCARNGATSDAFDMWGQGTMVTVSS
VL: EIVLTQSPGTLSLSPGERATLSCRASLSVSSNYLAWFQQRPGQAPRLLIHGVSRRATGIPDRFSGSGSGTDFTLTISRLEPEDFAVYYCQQYGSSPLTFGGGTKVEIK
modifications: 74804_12A21B VH and 74804_29D13A VH; 74804_12A21B VL
Inhibition of IL1 signaling (phosphorylation of ERK and NFκB) [1]: inhibited IL1 signaling in AML patient samples
Inhibition of IL36 signaling (phosphorylation of ERK, AKT, p38 and NFκB) [2]: Inhibition of IL36 signaling in solid tumor cancer cells
Colony numbers, combined with Azacitidine ([3]; STLX2012 50 μg/mL + Azacitidine 100 nM): Further reduction in colony numbers
Colony numbers, combined with Venetoclax ([3]; STLX2012 50 μg/mL + Venetoclax 100 nM): Further reduction in colony numbers
Colony numbers ([3]; STLX2012 50 μg/mL alone, vs control IgG1): decreased colony numbers in AML patient samples
Inhibition of cell proliferation (AML patient samples): inhibited cell proliferation
Inhibition of cell proliferation (CML cells (K562)): inhibited cell proliferation
ADCC activity (reporter) [4]: showed ADCC activity
Inhibition of viability [5]: inhibition of viability of patient-derived AML samples
